Test results: patent US5393869A, “Parathyroid hormone derivatives” (Takeda Chemical Industries, Ltd., priority 1990, dated 1995)
No end group written: not given here.

Columns and labels:
[1] = target: PTH receptor on MC3T3-EI cells (mouse cranial bone-derived osteoblast-like cell strain) (mouse) (UniProt P41593)
[2] = target: T1, PTH receptor (Mus musculus, UniProt P41593); assay: cAMP production by PTH (1-34) analogues in MC3T3-EI osteoblast-like cells; assay type: cell-based; settings: cAMP production, 0.01-100 nM analogue, room temperature 30 minutes, hPTH(1-34) = 1.00
T1 construct: a mouse cranial bone-derived osteoblast-like cell strain, MC3T3-EI cells, cultivated on a 96-well multiplate; endogenous in cells; host or cells: MC3T3-E1 mouse osteoblast-like cells
T1 sequence (P41593 27-591): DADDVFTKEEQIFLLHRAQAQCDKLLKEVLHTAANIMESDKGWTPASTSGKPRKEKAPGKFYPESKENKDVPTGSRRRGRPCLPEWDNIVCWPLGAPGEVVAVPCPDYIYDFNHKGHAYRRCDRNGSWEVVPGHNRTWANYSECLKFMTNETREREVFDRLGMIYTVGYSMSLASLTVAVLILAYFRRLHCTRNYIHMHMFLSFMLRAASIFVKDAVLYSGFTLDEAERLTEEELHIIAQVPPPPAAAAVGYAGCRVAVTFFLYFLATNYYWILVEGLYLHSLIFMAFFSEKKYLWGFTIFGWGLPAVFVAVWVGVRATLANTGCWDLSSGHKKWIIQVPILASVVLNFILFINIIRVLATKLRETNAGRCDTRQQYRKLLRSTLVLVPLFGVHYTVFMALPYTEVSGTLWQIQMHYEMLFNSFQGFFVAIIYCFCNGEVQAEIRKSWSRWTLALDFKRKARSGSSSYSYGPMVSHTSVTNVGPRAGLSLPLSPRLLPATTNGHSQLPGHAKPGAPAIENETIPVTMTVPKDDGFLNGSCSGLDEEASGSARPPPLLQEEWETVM
Procedure: The biological activity of the peptide analogues was evaluated by a modified version of the method reported by Shigeno et al. in The Journal of Biological Chemistry 263, 18369-18377 (1988). A culture solution (Hank's solution, containing 20 mM N-2-hydroxyethylpiperazine-N'-2-ethanesulfonic acid (HEPES), 0.1% bovine serum albumin and 0.5 mM isobutylmethyl-xanthine) containing 0.01, 0.1, 1, 10 or 100 nM analogue was added in an amount of 100 μto a mouse cranial bone-derived osteoblast-like cell strain, MC3T3-EI cells, cultivated on a 96-well multiplate (Nunclon, Nunc), followed by reaction at room temperature for 30 minutes. After addition of 100 μof 0.2N hydrochloric acid, the mixture was immersed in boiling water for 2.5 minutes, and cyclic adenosine monophosphate (cAMP) produced by a PTH receptor was extracted from the cells. The total cAMP in the culture solution and the cells was assayed using a commercial radioimmunoassay kit (cyclic AMP [^125 I] kit "Du Pont-Daiichi", Daiichi Kagaku Yakuhin).

Compound | cAMP production in MC3T3-EI cells, relative activity to hPTH(1-34) (relative activity to hPTH(1-34)) [1] | Biological Activity (Represented by Relative Activity to hPTH(1-34)) [2]
(Leu^18)hPTH(1-34) (from UniProt P01270) (peptide) | 0.4 | 
(3-(2-naphthyl)-D-Ala^12)hPTH(1-34)NH2 (from UniProt P01270) (peptide) | 0.9 | 
(Ser^11)hPTH(1-34)NH2 (from UniProt P01270) (peptide) | 0.8 | 
(His^26)hPTH(1-34)NH2 (from UniProt P01270) (peptide) | 0.9 | 
(Aib^1)hPTH(1-34) (from UniProt P01270) (peptide) | 1.7 | 
(Leu^8)hPTH(1-34)NH2 (from UniProt P01270) (peptide) | 0.5 | 
(Phe^11)hPTH(1-34)NH2 (from UniProt P01270) (peptide) | 1.3 | 
(Arg^19,21,2-(1,3-dithiolan-2-yl)-Trp^23)hPTH(1-34)NH2 (from UniProt P01270) (peptide) | 1.7 | 
(3-(2-naphthyl)-Ala^11)hPTH(1-34)NH2 (from UniProt P01270) (peptide) | 1.7 | 
CC[C@H](C)[C@H](NC(=O)[C@H](CCC(=O)O)NC(=O)[C@H](CO)NC(=O)[C@@H](NC(=O)[C@@H](N)CO)C(C)C)C(=O)N[C@@H](CCC(N)=O)C(=O)N[C@@H](CC(C)C)C(=O)N[C@@H](CCSC)C(=O)N[C@@H](Cc1c[nH]cn1)C(=O)N[C@@H](CC(N)=O)C(=O)N[C@@H](CC(C)C)C(=O)NCC(=O)N[C@@H](CCCCN)C(=O)N[C@@H](Cc1c[nH]cn1)C(=O)N[C@@H](CC(C)C)C(=O)N[C@@H](CC(N)=O)C(=O)N[C@@H](CO)C(=O)N[C@@H](CC(C)C)C(=O)N[C@@H](CCC(=O)O)C(=O)N[C@@H](CCCNC(=N)N)C(=O)N[C@H](C(=O)N[C@@H](CCC(=O)O)C(=O)N[C@@H](Cc1c[nH]c2ccccc12)C(=O)N[C@@H](CC(C)C)C(=O)N[C@@H](CCCNC(=N)N)C(=O)N[C@@H](CCCCN)C(=O)N[C@@H](CCCCN)C(=O)N[C@@H](CC(C)C)C(=O)N[C@@H](CCC(N)=O)C(=O)N[C@@H](CC(=O)O)C(=O)N[C@H](C(=O)N[C@@H](Cc1c[nH]cn1)C(=O)N[C@@H](CC(N)=O)C(=O)N[C@@H](Cc1ccccc1)C(=O)O)C(C)C)C(C)C [[Leu^18] hPTH (1-34), (Leu^18)hPTH(1-34)] |  | 0.4
(D-Ser^12)hPTH(1-34)NH2 (from UniProt P01270) (peptide) | 0.8 | 
(His^25)hPTH(1-34) (from UniProt P01270) (peptide) | 1 | 
(Phe^11)hPTH(1-34) (from UniProt P01270) (peptide) | 1.1 | 
CC[C@H](C)[C@H](NC(=O)[C@H](CCC(=O)O)NC(=O)[C@H](CO)NC(=O)[C@@H](NC(=O)[C@@H](N)CO)C(C)C)C(=O)N[C@@H](CCC(N)=O)C(=O)N[C@@H](CC(C)C)C(=O)N[C@@H](CCSC)C(=O)N[C@@H](Cc1c[nH]cn1)C(=O)N[C@@H](CC(N)=O)C(=O)N[C@@H](CC(C)C)C(=O)NCC(=O)N[C@@H](CCCCN)C(=O)N[C@@H](Cc1c[nH]cn1)C(=O)N[C@@H](CC(C)C)C(=O)N[C@@H](CC(N)=O)C(=O)N[C@@H](CO)C(=O)N[C@@H](CCSC)C(=O)N[C@@H](CCC(=O)O)C(=O)N[C@@H](CCCNC(=N)N)C(=O)N[C@H](C(=O)N[C@@H](CCC(=O)O)C(=O)N[C@@H](Cc1c[nH]c2ccccc12)C(=O)N[C@@H](CC(C)C)C(=O)N[C@@H](CCCNC(=N)N)C(=O)N[C@@H](Cc1c[nH]cn1)C(=O)N[C@@H](CCCCN)C(=O)N[C@@H](CC(C)C)C(=O)N[C@@H](CCC(N)=O)C(=O)N[C@@H](CC(=O)O)C(=O)N[C@H](C(=O)N[C@@H](Cc1c[nH]cn1)C(=O)N[C@@H](CC(N)=O)C(=O)N[C@@H](Cc1ccccc1)C(N)=O)C(C)C)C(C)C [[His^26] hPTH (1-34)NH2, (His^26)hPTH(1-34(NH2] |  | 0.9
CC[C@H](C)[C@H](NC(=O)[C@H](CCC(=O)O)NC(=O)[C@H](CO)NC(=O)[C@@H](NC(=O)[C@@H](N)CO)C(C)C)C(=O)N[C@@H](CCC(N)=O)C(=O)N[C@@H](CC(C)C)C(=O)N[C@@H](CCSC)C(=O)N[C@@H](Cc1c[nH]cn1)C(=O)N[C@@H](CC(N)=O)C(=O)N[C@@H](CC(C)C)C(=O)NCC(=O)N[C@@H](CCCCN)C(=O)N[C@@H](Cc1c[nH]cn1)C(=O)N[C@@H](CC(C)C)C(=O)N[C@@H](CC(N)=O)C(=O)N[C@@H](CO)C(=O)N[C@@H](CCSC)C(=O)N[C@@H](CCC(=O)O)C(=O)N[C@@H](CCCNC(=N)N)C(=O)N[C@H](C(=O)N[C@@H](CCC(=O)O)C(=O)N[C@@H](Cc1c[nH]c2ccccc12)C(=O)N[C@@H](CC(C)C)C(=O)N[C@@H](Cc1c[nH]cn1)C(=O)N[C@@H](CCCCN)C(=O)N[C@@H](CCCCN)C(=O)N[C@@H](CC(C)C)C(=O)N[C@@H](CCC(N)=O)C(=O)N[C@@H](CC(=O)O)C(=O)N[C@H](C(=O)N[C@@H](Cc1c[nH]cn1)C(=O)N[C@@H](CC(N)=O)C(=O)N[C@@H](Cc1ccccc1)C(=O)O)C(C)C)C(C)C [[His^25] hPTH (1-34), (His^25)hPTH(1-34)] |  | 1.0
(Arg^19,21)hPTH(1-34)NH2 (from UniProt P01270) (peptide) | 0.9 | 
SVSEIQLLHNFGKHLNSLERVEWLRKKLQDVHNF-NH2 [[Leu^8, Phe^11, Leu^18] hPTH (1-34)NH2, (Leu^8, Phe^11,Leu^18)hPTH(1-34)NH2] |  | 0.9
CC[C@H](C)[C@H](NC(=O)[C@H](CCC(=O)O)NC(=O)[C@H](CO)NC(=O)[C@@H](NC(=O)[C@@H](N)CO)C(C)C)C(=O)N[C@@H](CCC(N)=O)C(=O)N[C@@H](CC(C)C)C(=O)N[C@@H](CCSC)C(=O)N[C@@H](Cc1c[nH]cn1)C(=O)N[C@@H](CC(N)=O)C(=O)N[C@@H](Cc1ccccc1)C(=O)NCC(=O)N[C@@H](CCCCN)C(=O)N[C@@H](Cc1c[nH]cn1)C(=O)N[C@@H](CC(C)C)C(=O)N[C@@H](CC(N)=O)C(=O)N[C@@H](CO)C(=O)N[C@@H](CCSC)C(=O)N[C@@H](CCC(=O)O)C(=O)N[C@@H](CCCNC(=N)N)C(=O)N[C@H](C(=O)N[C@@H](CCC(=O)O)C(=O)N[C@@H](Cc1c[nH]c2ccccc12)C(=O)N[C@@H](CC(C)C)C(=O)N[C@@H](CCCNC(=N)N)C(=O)N[C@@H](CCCCN)C(=O)N[C@@H](CCCCN)C(=O)N[C@@H](CC(C)C)C(=O)N[C@@H](CCC(N)=O)C(=O)N[C@@H](CC(=O)O)C(=O)N[C@H](C(=O)N[C@@H](Cc1c[nH]cn1)C(=O)N[C@@H](CC(N)=O)C(=O)N[C@@H](Cc1ccccc1)C(=O)O)C(C)C)C(C)C [[Phe^11] hPTH (1-34), (Phe^11)hPTH(1-34)] |  | 1.1
(Gln^27)hPTH(1-34) (from UniProt P01270) (peptide) | 2.5 | 
(Leu^8, Phe^11,Leu^18)hPTH(1-34)NH2 (from UniProt P01270) (peptide) | 0.9 | 
(Lys^11)hPTH(1-34)NH2 (from UniProt P01270) (peptide) | 1.1 | 
(Leu^27)hPTH(1-34) (from UniProt P01270) (peptide) | 1.2 | 
(D-Leu^12)hPTH(1-34)NH2 (from UniProt P01270) (peptide) | 0.5 | 
